Laboratory results reported in article PMC11143254, “Cryo-EM structure of cadmium-bound human ABCB6” (Communications Biology, 2024).

Biological target: the molecule itself
Assay: cryo-EM structure; nanodisc-reconstituted hABCB6^core (0.5 mg/mL) incubated with 800 uM CdCl2 and 1 mM GSH (or PC2) at 4 °C for 30 min; C2 symmetry; inward-facing homodimer

B1: human ABCB6 core region lacking TMD0 (hABCB6^core) (domain or fragment, UniProt Q9NP58 206-842, looked up)
chain: APGLRPQSYTLQVHEEDQDVERSQVRSAAQQSTWRDFGRKLRLLSGYLWPRGSPALQLVVLICLGLMGLERALNVLVPIFYRNIVNLLTEKAPWNSLAWTVTSYVFLKFLQGGGTGSTGFVSNLRTFLWIRVQQFTSRRVELLIFSHLHELSLRWHLGRRTGEVLRIADRGTSSVTGLLSYLVFNVIPTLADIIIGIIYFSMFFNAWFGLIVFLCMSLYLTLTIVVTEWRTKFRRAMNTQENATRARAVDSLLNFETVKYYNAESYEVERYREAIIKYQGLEWKSSASLVLLNQTQNLVIGLGLLAGSLLCAYFVTEQKLQVGDYVLFGTYIIQLYMPLNWFGTYYRMIQTNFIDMENMFDLLKEETEVKDLPGAGPLRFQKGRIEFENVHFSYADGRETLQDVSFTVMPGQTLALVGPSGAGKSTILRLLFRFYDISSGCIRIDGQDISQVTQASLRSHIGVVPQDTVLFNDTIADNIRYGRVTAGNDEVEAAAQAAGIHDAIMAFPEGYRTQVGERGLKLSGGEKQRVAIARTILKAPGIILLDEATSALDTSNERAIQASLAKVCANRTTIVVAHRLSTVVNADQILVIKDGCIVERGRHEALLSRGGVYADMWQLQQGQEETSEDTKPQTMER
notes: human ABCB6, core region lacking the N-terminal TMD0, residues 206-842, codon-optimized synthetic gene; Homodimeric half-transporter; The C-terminal tag (thrombin site, eGFP, 10xHis) was removed by thrombin; residues of the cleavage site may remain; Modelled residues exclude the extreme N-terminus and residues 827-842; not shown: eGFP, C-terminal, cleaved; 10xHis, C-terminal, cleaved
stoichiometry N: 2
